This note sets out measurements from patent publication US20090304719A1.

In assay [1] the target is VEGF (UniProt P15692). The experiment in a line: FACS, clone displayed on E. coli (CPX), labeled VEGF; MMP-2 treated against untreated (FIG. 25). On the technique in general: A flow cytometer gives signals particle by particle.
The target in assay [2] is VEGF (UniProt P15692). In words: FACS, clone displayed on E. coli (CPX), labeled VEGF; with MMP-2 against without (FIG. 23).
A further assay concerns the target anti-VCAM-1 scFv. The experiment in a line: FACS, peptide displayed on bacteria, 50 nM biotinylated anti-VCAM scFv then 1 nM anti-biotin PE; background without scFv printed as 142.

Where no end group is shown, it is not given here. CPX display scaffold = circularly permuted E. coli OmpX display scaffold

VEGF, sequence (P15692 other isoform, or with tags, fused parts or gaps limits assumed): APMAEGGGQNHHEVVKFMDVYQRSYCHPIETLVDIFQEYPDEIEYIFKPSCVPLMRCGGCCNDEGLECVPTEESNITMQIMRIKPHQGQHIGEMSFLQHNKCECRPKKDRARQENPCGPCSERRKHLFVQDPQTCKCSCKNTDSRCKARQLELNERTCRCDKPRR

B1: ABP library clone 2-3B-5 (designed binder, not shown: large carriers; small tags and cut ends)
chain: GQSGQCEYAFGPLGLAGGGSGNFGYGKWEWDYGKWLEKVGGC-{CPX display scaffold}
modifications: not fully specified; cysteine pairing not given here
For B1, the fold increase in fluorescence after enzyme cleavage in the assay with VEGF [1] amounted to 10 fold. Besides, in the assay with VEGF [2], the fold increase in fluorescence in the presence of MMP-2 was found to be 11.8 fold.

B2: BBB-08 (peptide)
peptide: GVVLTTMNFWDWITV
The molecule B2 had an average fluorescence value in the assay with anti-VCAM-1 scFv of 2620.
